Assay results from the RNAGym collection of RNA variant scans (doi:10.7554/elife.90254).

B1: OR4K15 (parent)
chain: GUUAACGGUCAUAGGCCAUGGAAACUAGGAGCACCAUUUCGCUGCCAGUGAAGAAAUGAACAAAGAAAAUCUGGGCCAGGCAGGCAUCAAAAGAAAUAGUCUUGCGCUCAACCAGAAAGUCUGUAAUCAUUUUAAGGGUA

Variants of: B1
Experiment: self-cleavage, relative activity (ratio to wild type); higher = more cleavage; in vitro, sequencing; the parent is a self-cleaving ribozyme

Compared with GUUAACGGUCAUAGGCCAUGGAAACUUGGAGCACCAUUUCGCUGCCAGUGAAGAAAUGAACAAAGAAAAUCUGGGCCAGGCAGGCAUCAAAAGAAAUAGUCUUGCGCUCAACCAGAAAGUCCGUAAUCAUUUUAAGGGUA [A27U U122C], GUUAACGGUCAUAGGCCAUGGAAACUAGGAGCACCAUUUCGCUGCCAGUGAAGAAACGAACAAAGAAAAUCUGGGCCAGGCAGGCAUCAAAAGAAAUAGUCUUGCGCUCAACCAGAAAGUCUGUAAUCAUUUUAAGGGCA [U57C U139C] is higher in self-cleavage: 1.42 for the first, 1.94 for the second.

First: GUUAACGGUCAUAGGCCAUGGAAACUAGGAGCACCAUUUCGCUGCCAGAGAAGAAAUGAACAAAGAAAAUCUGGGCCAGGCAGGCAUCAAAAGAAAUAGUCUUGUGCUCAACCAGAAAGUCUGUAAUCAUUUUAAGGGUA [U49A C105U]
Second: GUUAACGGUCAUAGGCCAUGGAAACUAGGAGCACCAUUUCGCUGCCAGUGAAGAAAUGAACAAAGAAUAUCUGGGCCAGGCAGGCAUCAAAAGAAAUAGUCUUGCGCUCAGCCAGAAAGUCUGUAAUCAUUUUAAGGGUA [A68U A111G]
The self-cleavage of the first is higher: 0.15 for the first, 0.02 for the second.

Compared with GUUAACGGUCAUAGGCCAUGGAAUCUAGGAGCACCAUUUCGCUGCCAGUGAAGAAAUGAACGAAGAAAAUCUGGGCCAGGCAGGCAUCAAAAGAAAUAGUCUUGCGCUCAACCAGAAAGUCUGUAAUCAUUUUAAGGGUA [A24U A62G], GUUAACGGUCAUAGGCCAUGGAAACUAGGAGCACCAUUUCGCUGCCAGUGAAGAAAUGAACAAAGAAAAUCUGGGCCAGGCAGGCAUCCAAAGAAAUAGUCUUGCCCUCAACCAGAAAGUCUGUAAUCAUUUUAAGGGUA [A89C G106C] is lower in self-cleavage: 2.33 for the first, 0 for the second.

Going from GUUAACGGUCAUAGGCCAUGGAAACUAGGAGCACCAUUUCGCUGCCAGUGAAGAAAUGAACAAAGAAAAUCUGGGCCAGGCAGGCAUCUAAGGAAAUAGUCUUGCGCUCAACCAGAAAGUCUGUAAUCAUUUUAAGGGUA [A89U A92G] to GUUAACGGUCUUAGGCCAUGGAAACUAGGAGCACCAUUUCGCUGCCAGAGAAGAAAUGAACAAAGAAAAUCUGGGCCAGGCAGGCAUCAAAAGAAAUAGUCUUGCGCUCAACCAGAAAGUCUGUAAUCAUUUUAAGGGUA [A11U U49A], the self-cleavage falls from 2.32 to 0.68.

Compared with GUUAACGGUCAUAGGCCAUGGAAACUAGGAUCACCAUUUCGCUGCCAGUGAAGAAAUGAACAAAGAAAAUCUGGGCCAGGCAGGCAUCAAAAGAAAUAGUCUUGCGCUCAACCAGAAAGUCUGUAAUCAUUUCAAGGGUA [G31U U133C], GUUAACGGUCAUAGGCCAUGGAAACUAGGAGCACCAUUUCGCUGCCAGUGAAGAAAUGAACAAAGAAAAUCUGGGCCAGGCAGGCAUCAAAAGAGAUAGUCUUGCGCUCAACCAGAAAGUCUGUAAUCAUUUUAAGGGAA [A95G U139A] is lower in self-cleavage: 2.47 for the first, 2.01 for the second.

Going from GUUAACGGUCAUAGGCCAUGGUAACUAGGAGCACCAUUUCGCUGCCAGUGAAGUAAUGAACAAAGAAAAUCUGGGCCAGGCAGGCAUCAAAAGAAAUAGUCUUGCGCUCAACCAGAAAGUCUGUAAUCAUUUUAAGGGUA [A22U A54U] to GUUAACGGACAUAGGCCAUGGAAACUAGGAGCACCAUUUCGCGGCCAGUGAAGAAAUGAACAAAGAAAAUCUGGGCCAGGCAGGCAUCAAAAGAAAUAGUCUUGCGCUCAACCAGAAAGUCUGUAAUCAUUUUAAGGGUA [U9A U43G], the self-cleavage falls from 1.56 to 1.18.

First: GUUAACGGUCAUAGGCCAUGGAAACUAGGAGCACCAUUUCGCUGCCAGUGAAGAGAUGAACAAAGAAAAUCUGGGCCAGGCAGGCUUCAAAAGAAAUAGUCUUGCGCUCAACCAGAAAGUCUGUAAUCAUUUUAAGGGUA [A55G A86U]
Second: GUUAACGGUCAAAGGCCAUGGAAACUAGGAGCACCAUUUCGCUGCCAGUGAAGAAAUGAACAAAGAAAAUCUGGGCCAGGCAGGCAUCAAAAGAAAUAGUCUCGCGCUCAACCAGAAAGUCUGUAAUCAUUUUAAGGGUA [U12A U103C]
The self-cleavage of the first is higher: 1.26 for the first, 0.14 for the second.

Going from GUUAACGGUCAUAGGCCAUGGAAACUAGGAGCACCAUUUUGCUGCCAGUGAAGAAAUGAACAAAGAAAAUCUGGGCCAGGCAGGCACCAAAAGAAAUAGUCUUGCGCUCAACCAGAAAGUCUGUAAUCAUUUUAAGGGUA [C40U U87C] to GUUAACGGUCAUAGGCCAUGGAAACUAGGAGCACCAUUUCGCUGCCAGUGAAGAAAUGGACAAAGAAAAUCUGGGCCAGGCAGGCAUCAAAAGAAAUAGUCUUGCGCUCAACCCGAAAGUCUGUAAUCAUUUUAAGGGUA [A59G A114C], the self-cleavage falls from 1.44 to 0.03.

Compared with GUUAACGGUCAUUGGCCAUGGAAACUAGGAGCACCAUUUCGCUGCCAGUGAAGAAAUGAACAAAGAAAAUCUGGGCCAGGCAGGCAUCAAAAGAAAUAGUCUUGCGCCCAACCAGAAAGUCUGUAAUCAUUUUAAGGGUA [A13U U108C], GUUAACGGUCAUAGGCCGUGGAAGCUAGGAGCACCAUUUCGCUGCCAGUGAAGAAAUGAACAAAGAAAAUCUGGGCCAGGCAGGCAUCAAAAGAAAUAGUCUUGCGCUCAACCAGAAAGUCUGUAAUCAUUUUAAGGGUA [A18G A24G] is higher in self-cleavage: 0.01 for the first, 1 for the second.

First: GUUAACGGUCAUAGGCCAUGGAAACUAGGAGCACCAUUUCGCUGCCAGUGAAGAAAUGAACAAAGAAAAUCUGGGCCAGGCAGGCAUCAAAAGAAGUAGUCUUGCGCUCAACCAGAAAGUCUGCAAUCAUUUUAAGGGUA [A96G U124C]
Second: GUUAACGGUCAUAGGCCAUGGAAACUAGGAGCACCAUCUCGCUGCCAGUGAAGAAGUGAACAAAGAAAAUCUGGGCCAGGCAGGCAUCAAAAGAAAUAGUCUUGCGCUCAACCAGAAAGUCUGUAAUCAUUUUAAGGGUA [U38C A56G]
The self-cleavage of the first is lower: 1.22 for the first, 1.5 for the second.

Compared with GUUAACGGUCAUAGGCCAUGGAAACUAGGAGCACCAUUUCGCUGCCAGUGAAGAAAUGAACAAAGAAAAUCUGGGCCAGGCAGGCAUCAAAAGAAAUAGUCUUGCGCUCUACCAGACAGUCUGUAAUCAUUUUAAGGGUA [A110U A117C], GUUAACGGUCAUAGGCCAUGGAAACUAGGAGCACCAUUUCGCUGCCAGUGAAGAAAUGAACGAAGAAAAUCUGGGCCAGGCAGGCAUCAAAAGAAAUAGUCUUGCGCUCAACCAGAAAGUCUGUAAUCAUUUUAGGGGUA [A62G A135G] is higher in self-cleavage: 0.29 for the first, 2.19 for the second.

Going from GUUAACGGUCAUAGGCCAUGGAAACUAGGAGCACCAUUUCGCUGCCAGUGAAGAAAUGAACAAAGAAAAUCUGGGCCAGGCAGGCAUCAAAAGAAAUAGUCUUGCGCUCAGCCGGAAAGUCUGUAAUCAUUUUAAGGGUA [A111G A114G] to GUUAACGGUCAUAGGCCAUGGAAACUAGGAGCACCAUUUCGCUGCCGGAGAAGAAAUGAACAAAGAAAAUCUGGGCCAGGCAGGCAUCAAAAGAAAUAGUCUUGCGCUCAACCAGAAAGUCUGUAAUCAUUUUAAGGGUA [A47G U49A], the self-cleavage rises from 0.02 to 1.06.

Compared with GUUAACGGUCAUAGGCCAUGGAAACUAGGAGCACCAUUUCGCCGCCAGUGAAGAAAUGAACAAAGAAAAUCUGGGCCAGGCAUGCAUCAAAAGAAAUAGUCUUGCGCUCAACCAGAAAGUCUGUAAUCAUUUUAAGGGUA [U43C G83U], GUUAACGGUCAUAGGCCAUGGAAACUAGGAGCACCAUUUCGCUGCCAGUGAAGAAAUGAACAAAGGAAAUCUGGGCCAGGCAGGCAUCGAAAGAAAUAGUCUUGCGCUCAACCAGAAAGUCUGUAAUCAUUUUAAGGGUA [A66G A89G] is higher in self-cleavage: 0.67 for the first, 1.62 for the second.

Going from GUUAACGGUCAUAGGCCAUGGAAACUAGGAGCACCACUUCGCUGCCAGUGAAGAAAUGAACAAAGAAAAUCUGGGCCAGGCAGGCAUCAAAAGAAAUAGUCUUGCGCUCAACCAGAAAGUCUGUAAUCACUUUAAGGGUA [U37C U130C] to GUUAACGGUCAUAGGCCAUGAAAACUAGGAGCACCAUUUCGCUGCCAGUGAAGAAAUGAACAAAGGAAAUCUGGGCCAGGCAGGCAUCAAAAGAAAUAGUCUUGCGCUCAACCAGAAAGUCUGUAAUCAUUUUAAGGGUA [G21A A66G], the self-cleavage rises from 0.97 to 1.12.

Going from GUUAACGGUCAUAGGCCAUGGAAACUUGGAGCACCAUUUCGCUGCCAGUGAAGAAACGAACAAAGAAAAUCUGGGCCAGGCAGGCAUCAAAAGAAAUAGUCUUGCGCUCAACCAGAAAGUCUGUAAUCAUUUUAAGGGUA [A27U U57C] to GUUAACGGUCAUAGGCCAUGGAAACUAGGAGCACCAUUUCGCUGCCAGUGAAGAAAUGAACAAAGAAAAUCUGAGCCAGGCAGGCAUCAAAAGAAAUAGUCUUGCGCUCAACCAGAAAGCCUGUAAUCAUUUUAAGGGUA [G74A U120C], the self-cleavage falls from 1.25 to 0.1.

Going from GUUAACGGUCAUAGGCCAUGGGAACUAGGAGCACCAUUUCGCUGCCAGUGAAGAAAUGAACAAAGAAAAUCUGGGCCAGGCAGGCAUCAAAAGAAAUAGUCUUGCGCUCAACCAGAAAGUCUGUAAUCAUUUUGAGGGUA [A22G A134G] to GUUAACGGUCUUAGGCCAUGGAAACUAGGAGCACCAUUUCGCUGCCUGUGAAGAAAUGAACAAAGAAAAUCUGGGCCAGGCAGGCAUCAAAAGAAAUAGUCUUGCGCUCAACCAGAAAGUCUGUAAUCAUUUUAAGGGUA [A11U A47U], the self-cleavage falls from 1.02 to 0.96.

Compared with GUUAACGGUCAUAGGCCAUGGAAACUAGGAGCACCAUUUCGCUGCCAGUGAAGAAUUGAACUAAGAAAAUCUGGGCCAGGCAGGCAUCAAAAGAAAUAGUCUUGCGCUCAACCAGAAAGUCUGUAAUCAUUUUAAGGGUA [A56U A62U], GUUAACGGUCAUAGGCCAUGGAAACUAGGAGCACCAUUCCGCUGCCAGUGAAGAAAUAAACAAAGAAAAUCUGGGCCAGGCAGGCAUCAAAAGAAAUAGUCUUGCGCUCAACCAGAAAGUCUGUAAUCAUUUUAAGGGUA [U39C G58A] is lower in self-cleavage: 1.15 for the first, 0.67 for the second.

Compared with GUUAACGGUCAUAGGCCACGGAAACUAGGAGUACCAUUUCGCUGCCAGUGAAGAAAUGAACAAAGAAAAUCUGGGCCAGGCAGGCAUCAAAAGAAAUAGUCUUGCGCUCAACCAGAAAGUCUGUAAUCAUUUUAAGGGUA [U19C C32U], GUUAACGGUCAUAGGCCUUGGAAACUAGGAGCACCAUUUCGCUGCCAGUGAAGAAAUGAACAAAGAAAAUCUGGGCCAGGCAGGCAUCAAAAGAACUAGUCUUGCGCUCAACCAGAAAGUCUGUAAUCAUUUUAAGGGUA [A18U A96C] is lower in self-cleavage: 1.32 for the first, 1.02 for the second.

First: GUUAACGGUCAUAGGCCAUGGAAACUAGGAGCACCAUUUCGCCGCCAGUGAAGAAAUGAACAAAGAAAAUCUGGGCCGGGCAGGCAUCAAAAGAAAUAGUCUUGCGCUCAACCAGAAAGUCUGUAAUCAUUUUAAGGGUA [U43C A78G]
Second: GUUAACGGUCGUAGGCCAUGGAAACUAGGAGCACCAUUUCGCUGCCAGUGAAGAAAUGAACAAAGAAAAUCUGGGCCAGGCAGGCAUCUAAAGAAAUAGUCUUGCGCUCAACCAGAAAGUCUGUAAUCAUUUUAAGGGUA [A11G A89U]
The self-cleavage of the first is lower: 0.26 for the first, 1.34 for the second.

First: GUUAACGGUCAUAGGCCAUGGAAACUAGGAGCACCAUUUCGCUGCCAGUGAAGAAAUGAACAAAGAAAAUCUGGGCCAGGCAGGCAUCGAAAGAAAUAGUCUUGCGCUCAACCAGAAAGUCUGUAAUCAUUUUAAGGGUC [A89G A140C]
Second: GUUAACGGUCAUAGGCCAUGGAAACUAGGAGCGCCAUUUCGCUGCCAGUGAAGAAAUGAACAAAGAAAAUCUGGGCCAGGCAGGCAUCAAAAGAAAUAGUCUUGCGCUCAACCAGAAAGUCUGUAAUCAUUUUGAGGGUA [A33G A134G]
The self-cleavage of the first is higher: 0.99 for the first, 0.52 for the second.

For GUUAACGGUCAUAGGCCAUGGAAGCUAGGAGCACCAUUUCGCUGCCAGUGAAGAAAUGAGCAAAGAAAAUCUGGGCCAGGCAGGCAUCAAAAGAAAUAGUCUUGCGCUCAACCAGAAAGUCUGUAAUCAUUUUAAGGGUA [A24G A60G], the self-cleavage was 0.89.
